Assay results from PMC2911661.

Target: SH2 domain of SHC1 (human) (UniProt P29353)
Test: peptide or protein array

Chain of UniProt P29353 (P29353 488-579): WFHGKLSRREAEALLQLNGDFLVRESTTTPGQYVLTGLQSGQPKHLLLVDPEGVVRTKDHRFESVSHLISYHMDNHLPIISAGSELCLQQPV

## singly phosphorylated Tarp D peptide (18 amino acids around the ENIYE motif)
  Kd: < 200 nM
